Data as given in publication PMC5040716.

Test system: MgaSpn-His (Streptococcus pneumoniae)
Assay: EMSA
Details: MgaSpn EMSA: 40 mM Tris-HCl pH 7.6, 1 mM DTT, 0.4 mM EDTA, 1-2% glycerol, 50 mM NaCl, 10 mM MgCl2, 500 ug/ml BSA, 2 nM DNA, ambient, 20 min; MgaSpn footprint: …

hlyC 290-bp fragment showed a Kd of 75 nM.

hlyR 288-bp fragment was tested, and the Kd was 50 nM.
